Measurements: article PMC7404038, “Chaperone-Like Activity of HSPB5: The Effects of Quaternary Structure Dynamics and Crowding” (International Journal of Molecular Sciences, 2020)

T1: Ca2+-depleted α-lactalbumin (UniProt P00711 20-142)
T1 sequence (looked up): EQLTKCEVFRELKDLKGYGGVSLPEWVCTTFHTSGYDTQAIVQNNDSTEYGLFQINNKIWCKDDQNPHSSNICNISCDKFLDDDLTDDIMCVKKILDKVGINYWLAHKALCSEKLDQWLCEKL

B1: Human full-length untagged HSPB5 (αB-crystallin) (natural protein, UniProt P02511 1-175, looked up)
chain: MDIAIHHPWIRRPFFPFHSPSRLFDQFFGEHLLESDLFPTSTSLSPFYLRPPSFLRAPSWFDTGLSEMRLEKDRFSVNLDVKHFSPEELKVKVLGDVIEVHGKHEERQDEHGFISREFHRKYRIPADVDPLTITSSLSSDGVLTVNGPRKQVSGPERTIPITREEKPAVTAAPKK
notes: αB-crystallin (HSPB5), human, full length, untagged; subunit mass 20.2 kDa as printed; Polydisperse oligomer whose size depends on concentration, temperature and crowding; the preparation was a gift of N. Sluchanko; also called the chaperone; source: expressed and purified as described earlier [104]
B2: glycogen phosphorylase b from rabbit skeletal muscles (enzyme, UniProt P00489 1-843, looked up)
chain: MSRPLSDQEKRKQISVRGLAGVENVTELKKNFNRHLHFTLVKDRNVATPRDYYFALAHTVRDHLVGRWIRTQQHYYEKDPKRIYYLSLEFYMGRTLQNTMVNLALENACDEATYQLGLDMEELEEIEEDAGLGNGGLGRLAACFLDSMATLGLAAYGYGIRYEFGIFNQKICGGWQMEEADDWLRYGNPWEKARPEFTLPVHFYGRVEHTSQGAKWVDTQVVLAMPYDTPVPGYRNNVVNTMRLWSAKAPNDFNLKDFNVGGYIQAVLDRNLAENISRVLYPNDNFFEGKELRLKQEYFVVAATLQDIIRRFKSSKFGCRDPVRTNFDAFPDKVAIQLNDTHPSLAIPELMRVLVDLERLDWDKAWEVTVKTCAYTNHTVLPEALERWPVHLLETLLPRHLQIIYEINQRFLNRVAAAFPGDVDRLRRMSLVEEGAVKRINMAHLCIAGSHAVNGVARIHSEILKKTIFKDFYELEPHKFQNKTNGITPRRWLVLCNPGLAEIIAERIGEEYISDLDQLRKLLSYVDDEAFIRDVAKVKQENKLKFAAYLEREYKVHINPNSLFDVQVKRIHEYKRQLLNCLHVITLYNRIKKEPNKFVVPRTVMIGGKAAPGYHMAKMIIKLITAIGDVVNHDPVVGDRLRVIFLENYRVSLAEKVIPAADLSEQISTAGTEASGTGNMKFMLNGALTIGTMDGANVEMAEEAGEENFFIFGMRVEDVDRLDQRGYNAQEYYDRIPELRQIIEQLSSGFFSPKQPDLFKDIVNMLMHHDRFKVFADYEEYVKCQERVSALYKNPREWTRMVIRNIATSGKFSSDRTIAQYAREIWGVEPSRQRLPAPDEKIP
notes: glycogen phosphorylase, muscle form, b form, rabbit; subunit 97.4 kDa as printed; In the assays partially unfolded by heating at 48 °C; also called Phb; muscle glycogen phosphorylase b

Assays:
[1] = biological target: the molecule itself; assay: AUC; sedimentation velocity, Phb 0.4 mg/mL, HSPB5 0.26 mg/mL and their mixture, Hepes buffer with PEG 20 kDa 25 mg/mL and PVP 25 kDa 12.5 mg/mL (mixed crowding), 48 °C, 48,000 rpm
[2] = biological target: B2; assay: cell-based or functional assay
[3] = biological target: T1, Ca2+-depleted α-lactalbumin; assay: cell-based or functional assay
[4] = biological target: the molecule itself; assay: AUC; sedimentation velocity, Phb 0.5 mg/mL with HSPB5 0, 0.025 or 0.075 mg/mL, 30 mM Hepes, pH 6.8, 0.1 M NaCl, 0.2 mM EDTA, 48 °C, 48,000 rpm; masses by the Svedberg equation with diffusion coefficients from DLS

Question: Which results are given for B1?
Answer: binding result [1]: binds; stoichiometry S0 of the chaperone-target protein complex from suppression of thermal aggregation of Phb at 48 °C (DLS; Kagg/Kagg,0 = 1 − x/S0) [2]: 0.31 HSPB5 subunits per Phb monomer (molar ratio); initial stoichiometry S0 of the HSPB5-αLa complexes from suppression of DTT-induced aggregation of αLa at 37 °C (DLS; (Kagg/Kagg,0)^1/b versus [HSPB5]/[αLa]) [3]: 0.011 HSPB5 subunits per αLa molecule (molar ratio)

Question: Which “stoichiometry N” value [4] does the source give for B2 here?
Answer: 2
